Test results reported in paper PMC4807222.

Key:
[1] = molecular target: V5-Myc, murine c-Myc mutant 20-AAAI (murine) (UniProt P01108); assay: co-IP
[2] = molecular target: V5-Myc, murine c-Myc mutant 20-PAAI (murine) (UniProt P01108); assay: co-IP
[3] = molecular target: V5-Myc, murine c-Myc mutant 20-PAAA (murine) (UniProt P01108); assay: co-IP
[4] = molecular target: c-Myc_(1–88) c-Myc-20-PYFY/AAAA-23 mutant (human) (UniProt P01106); assay: SPR

Sequence of Flag-tagged Pin1 (co-immunoprecipitation) (Q13526 whole entry): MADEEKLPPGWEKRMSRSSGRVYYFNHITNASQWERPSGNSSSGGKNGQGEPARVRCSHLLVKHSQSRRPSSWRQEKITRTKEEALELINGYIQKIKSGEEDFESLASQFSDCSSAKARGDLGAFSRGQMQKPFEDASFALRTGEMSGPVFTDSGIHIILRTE
Sequence of full-length Pin1 (1–163) (Q13526 whole entry): as above
Sequence of V5-Myc, murine c-Myc mutant 20-AAAI (murine) (P01108 whole entry, change not shown): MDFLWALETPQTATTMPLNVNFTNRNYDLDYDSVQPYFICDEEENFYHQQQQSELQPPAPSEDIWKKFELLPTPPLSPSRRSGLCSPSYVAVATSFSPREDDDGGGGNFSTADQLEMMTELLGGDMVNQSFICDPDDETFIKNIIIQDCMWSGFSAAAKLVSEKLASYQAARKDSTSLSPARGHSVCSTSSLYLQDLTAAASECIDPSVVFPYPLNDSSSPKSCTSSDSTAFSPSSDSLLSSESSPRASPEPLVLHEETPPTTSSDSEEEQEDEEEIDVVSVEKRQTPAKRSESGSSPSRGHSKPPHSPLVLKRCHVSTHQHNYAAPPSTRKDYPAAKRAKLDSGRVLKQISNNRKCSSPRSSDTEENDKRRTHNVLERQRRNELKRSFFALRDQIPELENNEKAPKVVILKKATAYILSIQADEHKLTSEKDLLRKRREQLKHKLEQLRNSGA
Sequence of V5-Myc, murine c-Myc mutant 20-PAAA (murine) (P01108 whole entry, change not shown): as above
Sequence of V5-Myc, murine c-Myc mutant 20-PAAI (murine) (P01108 whole entry, change not shown): as above

“Flag-tagged Pin1 (co-immunoprecipitation) (from UniProt Q13526 1-163) (enzyme)” gave a percent reduction of co-immunoprecipitated Pin1 against wild type [1] of over 50%, a percent reduction of co-immunoprecipitated Pin1 against wild type [2] of over 50% and a percent reduction of co-immunoprecipitated Pin1 against wild type [3] of over 50%.

Substance “full-length Pin1 (1–163) (from UniProt Q13526 1-163) (enzyme)” has a Kd [4] of 15 µM.
